Target: HLA-DR molecules of the human B-lymphoblastoid cell line Awells (HLA-DRB1*0401, HLA-DRB4*0101) (human)
Assay: cell-based or functional assay

B1: L243 (anti-HLA-DR) (antibody, from another filing, V domains shown)
VH: QIQLVQSGPELKKPGETVKISCKASGFTFTNYGMNWVKQAPGKGLKWMGWINTYTREPTYADDFKGRFAFSLETSASTAYLQINNLKNEDTAKYFCARDITAVVPTGFDYWGQGTTLTVSS
VL: DIQMTQSPASLSVSVGETVTITCRASENIYSNLAWYRQKQGKSPQLLVFAASNLADGVPSRFSGSGSGTQYSLKINSLQSEDFGDYYCQHFWTTPWAFGGGTNLEIKR
inhibition of T-helper cell line activation by Awells-Ii-cyclin D1 transfectants: 71.2%

Source: US20090317428A1
